Read-outs that look alike come from different tables or passages of the source.

Consider “SIVmac239 Env (envelope glycoprotein, gp120): S204G (in SIVmac239 K180S)”, for which, for the setting “N-glycosylation at N202”, the expression_or_secretion entry was “no change” and the other result was “decreases”.

Regarding “SIVmac239 Env (envelope glycoprotein, gp120 V2 apex): T173I (in SIVmac239 K180S)”, under “N-glycosylation at N171”, the expression_or_secretion entry is “no change” and the other result is listed as “abolishes”.

Source of the values: PMC10833561.
